Molecular target: Frizzled-7 receptor, endogenous (rat (endogenous in fetal rat brain growth cone particles and hippocampal neurons))

## Wingless-type family member 3A (recombinant mouse Wnt3a) (from UniProt P27467 19-352) (ligand)
  percent of hippocampal neurons with an identifiable Tau-1 containing axon (stage 3) after 20 h with 1.35 nM Wnt3a: > 55%
